Drawing on the supplement of paper PMC6755084, this text covers fraction ligated for 34 variants.

The chains are these.
B1: F1*; the commonest letter at each place (parent)
chain: GAGACCGCAACTGAAAAGTTGTTATCACTTGTCGTAAGACACTTTGGATGGGTTGAAGTTCTGCACGTAGAAGCAAAAGGC

Variants of B1 are the subject of the data set. The data set is described as follows: fraction ligated after 30 min (ligated reads / total reads); higher = more ligase activity. The conditions noted are these: with F1*sub RNA substrate (template-directed ligation), 42 °C. Put shortly:
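Ribozyme variants were transcribed with T7 from PCR-amplified oligo-pool templates and gel-purified. Ligated and unligated bands, separated on gel, were reverse transcribed with barcoded primers and sequenced on a MiSeq, with core bases filtered at quality ≥20. Fraction ligated per variant was computed as ligated reads divided by total reads.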
Take GAGACCGCAACTGAAAAGTTGTTATCACTTGTCGAAAGACCCTTTGGATGGGTTGAAGTTCTGCACGTAGAAGCAAAAGGC [T35A A41C]: the fraction ligated was 0.792. The value for GAGACCGCAACTGAAAAGTTGTTATCACTTGTCGTTAGACACTTTGGCTGGGTTGAAGTTCTGCACGTAGAAGCAAAAGGC [A36T A48C] was 0.767.

For GAGACCGCAACTGAAAAGTTGTTAACACTAGTCGTAAGACACTTTGGATGGGTTGAAGTTCTGCACGTAGAAGCAAAAGGC [T25A T30A], the fraction ligated turned out to be 0.32.

For the variant GAGACCGCAACTGAAAAGTTGTTATCACCTGTCGTAAGACACTTCGGATGGGTTGAAGTTCTGCACGTAGAAGCAAAAGGC [T29C T45C], the fraction ligated came out at 0.471. The same measure for GAGACCGCAACTGAAAAGTTGTCATCACTTGTCGTAAGACATTTTGGATGGGTTGAAGTTCTGCACGTAGAAGCAAAAGGC [T23C C42T]: 0.804. The same measure for GAGACCGCAACTGAAAAGTTGTTATCACTTGTCGTAATACACTTTGGATGGGTTGATGTTCTGCACGTAGAAGCAAAAGGC [G38T A57T]: 0.812; for GAGACCGCAACTGAAAAGTTGTTATCACTTGTTGTAAGTCACTTTGGATGGGTTGAAGTTCTGCACGTAGAAGCAAAAGGC [C33T A39T]: 0.831. The same measure for GAGACCGCAACTGAAAAGTTGTTATCACCTGTCTTAAGACACTTTGGATGGGTTGAAGTTCTGCACGTAGAAGCAAAAGGC [T29C G34T]: 0.823; for GAGACCGCAACTGAAAAGTTGTTATCACTTGTCGTAAGACAATTTGAATGGGTTGAAGTTCTGCACGTAGAAGCAAAAGGC [C42A G47A]: 0.832; for GAGACCGCAACTGAAAAGTTGTTATCACGTGTCGTAAGAGACTTTGGATGGGTTGAAGTTCTGCACGTAGAAGCAAAAGGC [T29G C40G]: 0.83.

Turning to GAGACCGCAACTGAAAAGTTGTTATCACATGTCGTCAGACACTTTGGATGGGTTGAAGTTCTGCACGTAGAAGCAAAAGGC [T29A A36C], the fraction ligated is 0.855. The same measure for GAGACCGCAACTGAAAAGTTGTTATCCCTTGTCGTAGGACACTTTGGATGGGTTGAAGTTCTGCACGTAGAAGCAAAAGGC [A27C A37G]: 0.817; for GAGACCGCAACTGAAAAGTTGTTATCACTTGTCGTTAAACACTTTGGATGGGTTGAAGTTCTGCACGTAGAAGCAAAAGGC [A36T G38A]: 0.849. The same measure for GAGACCGCAACTGAAAAGTTGTTCTCACTAGTCGTAAGACACTTTGGATGGGTTGAAGTTCTGCACGTAGAAGCAAAAGGC [A24C T30A]: 0.414. The same measure for GAGACCGCAACTGAAAAGTTGTTATCACTTGTCGTAGGACACTTAGGATGGGTTGAAGTTCTGCACGTAGAAGCAAAAGGC [A37G T45A]: 0.804. GAGACCGCAACTGAAAAGTTGTTATCACTTCTCGTAATACACTTTGGATGGGTTGAAGTTCTGCACGTAGAAGCAAAAGGC [G31C G38T]: the fraction ligated amounted to 0.819. As for GAGACCGCAACTGAAAAGTTGTTATCACTTGTCGTAAGACACTTTGGGTGGGTTGAGGTTCTGCACGTAGAAGCAAAAGGC [A48G A57G], the fraction ligated turned out to be 0.803. Turning to GAGACCGCAACTGAAAAGTTGTTAACACTTGTCCTAAGACACTTTGGATGGGTTGAAGTTCTGCACGTAGAAGCAAAAGGC [T25A G34C], the fraction ligated stood at 0.521.

As to GAGACCGCAACTGAAAAGTTGTTAACACTTGTCGTAGGACACTTTGGATGGGTTGAAGTTCTGCACGTAGAAGCAAAAGGC [T25A A37G], the fraction ligated amounted to 0.772. The value for GAGACCGCAACTGAAAAGTTGTTATCACTTGTCGTATGACACTTTGGATGGGTTGAGGTTCTGCACGTAGAAGCAAAAGGC [A37T A57G] was 0.842.

As to GAGACCGCAACTGAAAAGTTGTTATCACTTGTCATAAGACACTTTGGACGGGTTGAAGTTCTGCACGTAGAAGCAAAAGGC [G34A T49C], the fraction ligated was 0.737.

Regarding GAGACCGCAACTGAAAAGTTGTTATCACTTGTCGGAAGACACTATGGATGGGTTGAAGTTCTGCACGTAGAAGCAAAAGGC [T35G T44A], the fraction ligated came out at 0.843. For the variant GAGACCGCAACTGAAAAGTTGTTATCACTTGTCGTAAGACACTTTGGATCGGTTGTAGTTCTGCACGTAGAAGCAAAAGGC [G50C A56T], the fraction ligated amounted to 0.0147. Turning to GAGACCGCAACTGAAAAGTTGTTATCACTTGGCGTAAGACACTTTGGATGGGTTGGAGTTCTGCACGTAGAAGCAAAAGGC [T32G A56G], the fraction ligated stood at 0.799. The same measure for GAGACCGCAACTGAAAAGTTGTTATCACTTGTCGTAAAACACTTTGGAAGGGTTGAAGTTCTGCACGTAGAAGCAAAAGGC [G38A T49A]: 0.782; for GAGACCGCAACTGAAAAGTTGTTATCAGTTGTCGTAAGACACTTTGGATGGGTTGACGTTCTGCACGTAGAAGCAAAAGGC [C28G A57C]: 0.77. The same measure for GAGACCGCAACTGAAAAGTTGTTATCACTTGTCCTAAGCCACTTTGGATGGGTTGAAGTTCTGCACGTAGAAGCAAAAGGC [G34C A39C]: 0.806. The value for GAGACCGCAACTGAAAAGTTGTTATAACTTGTCGTAAGACACTTGGGATGGGTTGAAGTTCTGCACGTAGAAGCAAAAGGC [C26A T45G] was 0.0382.

For GAGACCGCAACTGAAAAGTTGTAATTACTTGTCGTAAGACACTTTGGATGGGTTGAAGTTCTGCACGTAGAAGCAAAAGGC [T23A C26T], the fraction ligated stood at 0.794. Take GAGACCGCAACTGAAAAGTTGTGATGACTTGTCGTAAGACACTTTGGATGGGTTGAAGTTCTGCACGTAGAAGCAAAAGGC [T23G C26G]: the fraction ligated is 0.74. The value for GAGACCGCAACTGAAAAGTTGTTATCACTTGTAGTAAGACACTTTGGATGGGTTGACGTTCTGCACGTAGAAGCAAAAGGC [C33A A57C] was 0.834; that for GAGACCGCAACTGAAAAGTTGTTATCACTTGGGGTAAGACACTTTGGATGGGTTGAAGTTCTGCACGTAGAAGCAAAAGGC [T32G C33G] was 0.828; that for GAGACCGCAACTGAAAAGTTGTTATCACTTGTCGTAAGGCACTTTGGATGGGTTGATGTTCTGCACGTAGAAGCAAAAGGC [A39G A57T] was 0.829. The value for GAGACCGCAACTGAAAAGTTGTTATCACTTGTCGTAAGACACTGTGGAGGGGTTGAAGTTCTGCACGTAGAAGCAAAAGGC [T44G T49G] was 0.714.
